{"source": "paper PMC12225977", "about": "(PLOS Computational Biology, 2025)", "target": "the molecule itself", "assay": "native MS"}
{"protein": "Francisella tularensis dihydrolipoyl dehydrogenase (IPD) (enzyme, also called Francisella IPD; MGH6-IPD) MSDIKTQVVVLGSGPGGYSAAFRAADLGLEVVLVERYAEIGGVCLNVGCIPSKAMLHIAKVINEARHLESLGIIEMGGLKINRENLLKYKDGVIGKLTGGLKGMAQMRKVKIVQGYGKFTSDKELAVEAADGKVTKIAFDNCIIAAGSSVIKLPFVPEDDRIIDSTGALEMKEIPETMLVVGGGIIGLEMAQVYSELGTKITVVEFADQLMNGVDKDLVKAYQKVNSRYDVRLKTAVTAMEAKEDGIYVTMEGDHPAKDERFDRVLMAIGRKPNGKLIDAEKAGVKVDERGFIPVDKQLRTNVPHIFAIGDIVGQPMLAHKAVPEGRTAAEVISGLNHSFDPLVIPSVAYTDPEVAWVGETETSAKAKGIKYEKGVFPWAASGRSLSIDRSEGMTKILFDENHKIIGASIVGTHAGELISEAAIAIEMGCDAEDIALTVHPHPTLSESLMMATEVYEGTATDLPPQKKKK", "values": [{"measurement": "stoichiometry N", "result": 2}]}
